According to paper PMC9293652 (The Journal of Biological Chemistry, 2022):
Where two headings read alike, the source gives them in different places. Each block holds one molecule with its values, some of them ahead of it.

Tests used:
[1] = target: WWOX WW1-WW2 tandem domain (amino acids 16-91) (human); test: ITC
[2] = target: WWOX WW1-WW2 tandem domain (amino acids 16-91) (human); test: NMR titration
[3] = target: T1, WWOX WW1-WW2 tandem domain (amino acids 16-91) (human); test: ITC
T1 chain: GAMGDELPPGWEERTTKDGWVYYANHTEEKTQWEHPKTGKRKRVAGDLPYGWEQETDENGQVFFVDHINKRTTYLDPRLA

[4] = target: T1, WWOX WW1-WW2 tandem domain (amino acids …); test: NMR titration
[5] = target: T1, WWOX WW1-WW2 tandem domain (amino acids …); test: NMR titration
[6] = target: T2, WWOX WW1 (amino acids 16-50) (human); test: ITC
T2 chain: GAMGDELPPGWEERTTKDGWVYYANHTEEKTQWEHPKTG

[7] = target: T3, WWOX WW2 (amino acids 57-91) (human); test: ITC
T3 chain: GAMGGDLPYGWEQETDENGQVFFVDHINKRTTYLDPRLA

B1: ErbB4 double-motif peptide PY1PY2 (1027-1060, natural linker) (peptide)
peptide: AFNIPPPIYTSRARIDSNRSEIGHSPPPAYTPMS
Kd [3]: 14 µM | dH [3]: -39 kcal/mol | KD WW2 (based on V73) [4]: ~1000 µM | KD WW1 (based on W44) [5]: 10 ± 2 µM

B2: ErbB4 double-motif peptide PY3PY3 (polyglycine linker) (peptide)
peptide: GTVLPPPPYRHRNGGGGGTVLPPPPYRHRN
Kd [6]: 50 µM | dH [6]: -39 kcal/mol | Kd [3]: 3.1 µM | dH [3]: -24.9 kcal/mol | KD WW2 (based on V73) [4]: 40 ± 20 µM | KD WW1 (based on W44) [5]: 0.6 ± 0.3 µM

B3: ErbB4 double-motif peptide PY1PY2S (natural linker replaced by polyglycine) (peptide)
peptide: AFNIPPPIYTSRAGGGGGHSPPPAYTPMS
Kd [3]: 21 µM | dH [3]: -29 kcal/mol | KD WW2 (based on V73) [4]: 70 ± 20 µM | KD WW1 (based on W44) [5]: 2 ± 1 µM

B4: ErbB4 double-motif peptide PY1PY3 (polyglycine linker) (peptide)
peptide: AFNIPPPIYTSRAGGGGGTVLPPPPYRHRN
Kd [3]: 8 µM | dH [3]: -22 kcal/mol | KD WW2 (based on V73) [4]: 80 ± 20 µM | KD WW1 (based on W44) [5]: 6 ± 1 µM

Second part, the molecule after the results:

Kd [1]: > 100 µM | KD WW1 (based on W44) [2]: 15 µM
Molecule: ErbB4 peptide PY2 (1048-1060)

Kd [1]: > 100 µM | KD WW1 (based on W44) [2]: 21 µM
Molecule: ErbB4 peptide PY1 (1027-1039)

Kd [1]: 30 µM | dH [1]: -12.1 kcal/mol | KD WW1 (based on W44) [2]: 10 µM | KD WW2 (based on V73) [2]: > 1000 µM
Molecule: ErbB4 peptide PY3 (1293-1305)

Kd [6]: 78 µM | dH [6]: -23 kcal/mol | Kd [7]: > 200 µM
B5: ErbB4 peptide PY3 (1293-1305) (peptide)
peptide: GTVLPPPPYRHRN
